Source: US20080160035A1 (Regeneron, published 2008)
Substitutions are numbered along the chain they refer to.

T1: dimeric hIL-4R-hFc (human, UniProt P24394 26-232)
T1 construct: also called hIL-4R-Fc; not shown: human Fc (hFc)
T1 sequence: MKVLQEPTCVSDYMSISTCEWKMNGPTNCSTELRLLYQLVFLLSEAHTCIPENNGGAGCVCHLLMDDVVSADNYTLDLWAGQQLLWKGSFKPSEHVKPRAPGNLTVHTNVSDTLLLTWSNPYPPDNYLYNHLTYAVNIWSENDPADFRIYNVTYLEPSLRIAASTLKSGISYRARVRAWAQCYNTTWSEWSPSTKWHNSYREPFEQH

T2: hIL-4R on cells (STAT6-transfected HEK293, TF1, TF1/A12) (human, UniProt P24394 26-825)
T2 sequence (looked up): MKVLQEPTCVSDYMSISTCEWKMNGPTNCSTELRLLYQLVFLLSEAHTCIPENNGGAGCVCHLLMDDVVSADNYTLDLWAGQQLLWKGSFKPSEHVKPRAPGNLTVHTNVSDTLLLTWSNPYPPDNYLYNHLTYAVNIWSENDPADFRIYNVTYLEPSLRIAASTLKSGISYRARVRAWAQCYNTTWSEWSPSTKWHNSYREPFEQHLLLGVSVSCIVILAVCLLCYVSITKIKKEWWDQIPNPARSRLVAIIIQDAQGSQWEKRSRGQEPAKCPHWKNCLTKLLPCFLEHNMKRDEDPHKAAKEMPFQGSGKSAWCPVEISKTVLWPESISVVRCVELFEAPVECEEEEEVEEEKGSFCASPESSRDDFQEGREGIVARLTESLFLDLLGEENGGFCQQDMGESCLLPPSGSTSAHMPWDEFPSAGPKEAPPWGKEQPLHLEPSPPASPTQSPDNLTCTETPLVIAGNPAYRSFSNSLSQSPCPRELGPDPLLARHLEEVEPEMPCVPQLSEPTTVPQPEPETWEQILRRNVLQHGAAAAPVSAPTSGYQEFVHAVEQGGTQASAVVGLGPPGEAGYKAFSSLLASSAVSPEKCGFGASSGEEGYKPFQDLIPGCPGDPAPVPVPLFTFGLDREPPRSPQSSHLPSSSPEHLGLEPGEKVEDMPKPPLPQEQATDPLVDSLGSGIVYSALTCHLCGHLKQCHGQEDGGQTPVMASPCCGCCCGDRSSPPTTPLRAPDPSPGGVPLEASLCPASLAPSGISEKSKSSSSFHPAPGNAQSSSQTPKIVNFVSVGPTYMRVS

T3: monomeric hIL-4R (R&D Systems) (human, UniProt P24394 26-231)
T3 construct: Bought (R&D Systems); also called hIL-4R monomer
T3 sequence: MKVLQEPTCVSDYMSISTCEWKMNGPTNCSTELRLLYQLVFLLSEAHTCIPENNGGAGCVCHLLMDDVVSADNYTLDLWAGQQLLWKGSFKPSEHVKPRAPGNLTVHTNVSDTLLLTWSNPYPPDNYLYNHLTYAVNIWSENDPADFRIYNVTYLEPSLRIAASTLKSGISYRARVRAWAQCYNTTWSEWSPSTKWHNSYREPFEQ

T4: mouse IL-4R (mouse, UniProt P16382 26-233, limits assumed)
T4 sequence (looked up): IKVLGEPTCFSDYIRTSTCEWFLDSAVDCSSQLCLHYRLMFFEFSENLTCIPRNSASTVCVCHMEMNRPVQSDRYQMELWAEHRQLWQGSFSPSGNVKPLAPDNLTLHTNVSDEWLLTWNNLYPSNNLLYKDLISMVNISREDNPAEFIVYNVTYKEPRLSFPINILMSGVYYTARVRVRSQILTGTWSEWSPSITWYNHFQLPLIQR

B1: VAB 16F3-1 (antibody, V domains shown)
VH: QVQLVQSGAEVKKPGASVKVSCKASGYTFNSYGISWVRQAPGQGLEWMGWIRTYNGNTNYAQKLQGRVTMTTDTSTSTAYMELRSLRSDDTAVYYCARDEARIVVAGTTPYYYGMDVWGQGTTVTVSS
VL: DIQMTQSPSSVSASVGDRVTITCRASQDISIWLAWYQQSPGKAPKLLINVASRLQSGVPSRFSGSGSGTDFTLTINSLQPEDFVTYYCQQANSFPITFGQGTRLATK
notes: Apparently tested with mouse constant region (anti-mouse IgG capture/detection)
B2: VAB 15C8-17 (antibody, V domains shown)
VH: QVQLVESGGGLVQPGGSLRLSCAVSGFTISDHYMSWIRQAPGKGLEWISYISSSGSKIYYADSVKGRFTISRDNAKNSLFLQMNSLRAEDTAVYYCARTRQLVGDYWGQGTLVTVSS
VL: DIQLTQSPSFLSASVGDRVTITCWASQGISSYLAWYQQKPGKAPKLLIFAASTLQSGVPSRFSGSGSGTEFTLTISSLQPEDFATYYCQQLNSYPLTFGGGTKVEIR
notes: as for B1
B3: VX 3F7-6 (antibody, V domains shown)
VH: EVQLVESGGGLVQPGGSLRLSCAASGFTFSSFWMTWVRQAPGKGLEWVANIKQDGSEKYYVDSVKGRFTISRDNAKNSLYLQMNSLRAEDTAVYYCARDPGRTMVRGGIRYYYGMDVWGQGTTVTVSS
VL: DIQMTQSPSSVSASVGDRVTISCRASQGVSSWLAWYQQKPGNAPKLLISAASSIQSGVPSRFSGSGSGTDFTLTISSLQPEDFATYYCQQANSFPLTFGGGTKVEIK
notes: 395/397; 399/401 without saying which was assayed; Apparently tested with mouse constant region (anti-mouse IgG capture/detection)
B4: VAB 10G8-19 (antibody, V domains shown)
VH: QVQLVQSGAEVKKPGASVKVSCKASRYTFTSYDINWVRQATGQGLEWMGWMNPNSGNTGYAQKFQGRVTMTRNTSTSTAYMELSSLRSEDTAVYYCARVRRFFDYWGQGTLVTVSS
VL: B2 VL with S30I, F49Y, Q55H, Q89H, N92K, L96I, G100Q, K103R, V104L, R107K
notes: as for B1
B5: VAB 10C1-5 (antibody, V domains shown)
VH: QVQLVETGGDLVRPGGSLRLSCTASGFTLSDYYMSWIRQAPGKGLEWVSYIRRSGNTIYYADSVKGRFTISRDNAKNSLYLQMNSLRAEDTAVYYCARGGDWADVWGQGTTVTVSS
VL: DIQMTQSPSSLSASVGDRVTITCRASQGISIYLAWFQQKPGKAPKSLIYAASSLQRGVPSKFSGSGSGTDFTLTISSLQPEDFATYYCQQYNSYPYTFGQGTKLEIK
notes: as for B1
B6: VAK8G11-13 (antibody, V domains shown)
VH: QVRLVESGGGVVQPGGSLRLSCAASGFIFRSYGMHWVRQAPGRGLEWVAVISYDGSKTFYVDSVKVRFTISRDNSKNTLYLEMNSLRVDDTAVYFCVKEGRSGSWFDPWGQGTLVAVSS
VL: DIHMTQSPSSLSASVGDRVTITCRASQAINNFLAWFQQKPGKTPKSLIFATSSLQSGVPSRFSGSGSGTDFTLTISSLQPEDFATYYCQQYNSHPWTFGQGTKVEIK
notes: as for B1
B7: VAK5H4-4 (antibody, V domains shown)
VH: B6 VH with A23V, I28T
VL: B6 VL with H3Q, K45N, G64A, S65G
notes: as for B1
B8: VAK7G8-5 (antibody, V domains shown)
VH: B6 VH with A23T
VL: B6 VL with K107R
notes: as for B1

What follows are binders tested against T1, dimeric hIL-4R-hFc (assay: ELISA; antibody titrated against 25 pM hIL-4R-Fc, free receptor caught on hIL-4 plate).
Procedure: Concentration of free hIL-4R-Fc (no antibody bound) was determined using a hIL-4R-specific sandwich ELISA. […] After a one-hour incubation at room temperature, the detection plate was washed and plate-bound hIL-4R-hFc was detected using HRP conjugated goat anti-hFc polyclonal antibodies and developed using colorimetric substrates such as BD OptEIA™ (BD Biosciences Pharmingen, San Diego, Calif.). After the reaction was stopped with 1 M phosphoric or sulfuric acid, absorbances at 450 nm were recorded and the data were analyzed using GraphPad™ Prism software.

Binder | IC50
B1 | 0.019 nM
B2 | 0.029 nM
B3 | 0.274 nM
B4 | 0.018 nM
B5 | 0.034 nM
B6 | 0.026 nM
B7 | 0.033 nM
B8 | 0.027 nM

What follows are binders tested against T2, hIL-4R on cells (STAT6-transfected …) (assay: cell-based or functional assay).

Binder | STAT6 Bioassay IC50 (HEK293 STAT6 luciferase, 10 pM hIL-4) | TF1/A12 Bioassay IC50 (proliferation, 20 pM hIL-4) | TF1 Bioassay IC50 (proliferation, 50 pM hIL-4)
B1 | 32 pM | 67 pM | 46 pM
B2 | 0.32 nM | 4.7 nM | 0.44 nM
B3 | > 10 nM | > 50 nM | –
B4 | 1.8 nM | 12.8 nM | –
B5 | 1.9 nM | 22.8 nM | –
B6 | 80 pM | – | 0.16 nM
B7 | 0.132 nM | 0.182 nM | 0.15 nM
B8 | 60 pM | – | 0.13 nM

What follows are binders tested against T1, dimeric hIL-4R-hFc (assay: SPR (BIAcore 2000); antibody captured, dimeric hIL-4R-hFc injected).
Procedure: (§1) Binding affinity (KD) of selected antibodies with respect to hIL-4R was determined using a real-time biosensor surface plasmon resonance assay (BIAcore™ 2000). Briefly, antibody was captured on a goat anti-mouse (GAM) IgG polyclonal antibody surface created through direct chemical coupling of the GAM IgG to a BIAcore™ chip to form a captured antibody surface. […] Binding of antigen to antibody and dissociation of the bound complex, were monitored in real time. Equilibrium dissociation constants (KD) and dissociation rate constants were ascertained by performing kinetic analysis using BIA evaluation software. BIA evaluation software was also used to calculate the half-life of antigen/antibody complex dissociation (T_{1/2}). […] The binding affinity of anti-hIL-4R antibodies to either mouse or monkey (Macaca fascicularis) IL-4R was also tested.

Binder | Kd | T1/2 dimeric
B1 | 0.003 nM | 41 h
B2 | 0.045 nM | 3.6 h
B3 | 0.654 nM | 2.7 h
B4 | 0.052 nM | 2 h
B5 | 0.051 nM | 6.7 h
B6 | 0.002 nM | 63 h
B7 | 0.004 nM | 30 h
B8 | 0.009 nM | 25 h

Biological target: T2, hIL-4R on cells (STAT6-transfected …)
Assay: cell-based or functional assay
Remark: another data set of the same source

Binder | STAT6 Bioassay IC50 (HEK293 STAT6 luciferase, 40 pM hIL-13) | TF1 Bioassay IC50 (proliferation, 150 pM hIL-13)
B1 | 18 pM | 79 pM
B2 | 0.2 nM | 2.6 nM
B3 | > 10 nM | –
B4 | 0.97 nM | –
B5 | 1 nM | –
B6 | 60 pM | 0.42 nM
B7 | 84 pM | 0.24 nM
B8 | 40 pM | 0.36 nM

These binders were tested against T1, dimeric hIL-4R-hFc (assay: SPR; reduction of hIL-4 (50 nM) binding to captured hIL-4R-hFc after antibody; competitor hIL-4).
Source text: Purified hIL-4R-hFc molecules were captured by goat anti-human IgG polyclonal antibody immobilized on CM-5 to a density of 260 RU, to prepare a receptor-coated surface.

Binder | % Inhibition (BIAcore)
B1 | 97%
B2 | 97%
B3 | 86%
B4 | 85%
B5 | 93%
B6 | 95%
B7 | 96%
B8 | 95%

These binders were tested against T3, monomeric hIL-4R (R&D Systems) (assay: SPR (BIAcore 2000); antibody captured, monomeric hIL-4R injected).
Procedure: as §1

Binder | Kd | T1/2 monomeric
B1 | 0.02 nM | 254 min
B2 | 0.82 nM | 15 min
B3 | 3.91 nM | 16 min
B4 | 11.4 nM | 2 min
B5 | 4.47 nM | 6 min
B6 | 0.03 nM | 840 min
B7 | 0.02 nM | 960 min
B8 | 0.06 nM | 480 min

Each binder was assayed against T4, mouse IL-4R (assay: binding affinity test of Example 2 (method not restated)).

Binder | binding result
B1 | no binding
B2 | no binding
B3 | no binding
B4 | no binding
B5 | no binding
B6 | no binding
B7 | no binding
B8 | no binding
